Laboratory results reported in paper PMC6778850, “The flavin mononucleotide cofactor in α-hydroxyacid oxidases exerts its electrophilic/nucleophilic duality in control of the substrate-oxidation level” (Acta Crystallographica. Section D, Structural Biology, 2019).
Changes are numbered by the printed parent chain. In names and notes the source's numbering stands.

B1: p-hydroxymandelate oxidase (Hmo), 5-deaza-FMN-containing (enzyme, Amycolatopsis orientalis)
chain: MTYVSLADLERAARDVLPGEIFDFLAGGSGTEASLVANRTALERVFVIPRMLRDLTDVTTEIDIFGRRAALPMAVAPVAYQRLFHPEGELAVARAARDAGVPYTICTLSSVSLEEIAAVGGRPWFQLYWLRDEKRSLDLVRRAEDAGCEAIVFTVDVPWMGRRLRDMRNGFALPEWVTAANFDAGTAAHRRTQGVSAVADHTAREFAPATWESVEAVRAHTDLPVVLKGILAVEDARRAVDAGAGGIVVSNHGGRQLDGAVPGIEMLGEIVAAVSGGCEVLVDGGIRSGGDVLKATALGASAVLVGRPVMWALAAAGQDGVRQLLELLAEEVRDAMGLAGCESVGAARRLNTKLGVV
notes: p-hydroxymandelate oxidase (Hmo), product of the hmo gene (orf22) amplified from Amycolatopsis orientalis genomic DNA, cloned in pET-28a(+); no removal of the His6 tag is described; also called 5-deaza-Hmo; wild-type Hmo; source: E. coli BL21(DE3), purified (Ni-NTA, gel filtration); deflavinated and reconstituted with 5-deaza-FMN on an Ni-NTA column
B2: p-hydroxymandelate oxidase (Hmo) Y128F mutant, 5-deaza-FMN-containing (enzyme, Amycolatopsis orientalis)
chain: B1 chain with Y128F
notes: p-hydroxymandelate oxidase (Hmo), product of the hmo gene (orf22) of Amycolatopsis orientalis, point mutant Y128F made with QuikChange; no removal of the His6 tag is described; source: E. coli BL21(DE3), purified (same protocol as wild-type Hmo); deflavinated and reconstituted with 5-deaza-FMN on an Ni-NTA column

Molecular target: the molecule itself
Test: SEC; analytical gel filtration on a Superdex 200 16/20 column; 5-deaza-FMN-reconstituted protein after the refolding process; self-association (tetramer)

Protein | stoichiometry N
B1 | 4
B2 | 4
